Measured values from the Human Domainome abundance scans (Beltran et al. 2025).
± gives the uncertainty stated by the source.

B1: CD2-associated protein, residues 271 to 331; numbered along this chain, Q9Y5K6 (parent)
chain: KEYCRTLFAYEGTNEDELTFKEGEIIHLISKETGEAGWWRGELNGKEGVFPDNFAVQINEL

Variants of: B1
Test: abundance fitness (aPCA) (normalised: wild type 0, dead -1); higher = more abundant; growth selection in yeast, the domain comes from the species named
Conditions: Homo sapiens

Row | Variant | abundance fitness
1 | KEYCRTLFAYEGTNEDELTFKEGEIIHLISKETGEATWWRGELNGKEGVFPDNFAVQINEL | -0.416 ± 0.32
2 | KEYCRTLFAYEGTNEDELTFKEGEIIHLISKETGEAWWWRGELNGKEGVFPDNFAVQINEL | -1.08 ± 0.43
3 | KEYCRTLFAYEGTNEDELTFKEGEIIHLISKETGEAYWWRGELNGKEGVFPDNFAVQINEL | -0.898 ± 0.2
4 | KEYCRTLFAYEGTNEDELTFKEGEIIHLISKETGEAVWWRGELNGKEGVFPDNFAVQINEL | -0.647 ± 0.1
5 | KEYCRTLFAYEGTNEDELTFKEGEIIHLISKETGEAGWWRCELNGKEGVFPDNFAVQINEL | -1.07 ± 0.35
6 | KEYCRTLFAYEGTNEDELTFKEGEIIHLISKETGEAGWWRIELNGKEGVFPDNFAVQINEL | -1.08 ± 0.36
7 | KEYCRTLFAYEGTNEDELTFKEGEIIHLISKETGEAGWWRPELNGKEGVFPDNFAVQINEL | -0.605 ± 0.19
8 | KEYCRTLFAYEGTNEDELTFKEGEIIHLISKETGEAGWWRHELNGKEGVFPDNFAVQINEL | -0.746 ± 0.25
9 | KEYCRTLFAYEGTNEDELTFKEGEIIHLISKETGEAGWWRSELNGKEGVFPDNFAVQINEL | -0.71 ± 0.083
10 | KEYCRTLFAYEGTNEDELTFKEGEIIHLISKETGEAGWWRVELNGKEGVFPDNFAVQINEL | -1.06 ± 0.17
11 | KEYCRTLFAYEGTNEDELTFKEGEIIHLISKETGEAGWWRFELNGKEGVFPDNFAVQINEL | -0.949 ± 0.23
12 | KEYCRTLFAYEGTNEDELTFKEGEIIHLISKETGEAGWWRNELNGKEGVFPDNFAVQINEL | -0.881 ± 0.22
13 | KEYCRTLFAYEGTNEDELTFKEGEIIHLISKETGEAGWWRMELNGKEGVFPDNFAVQINEL | -1.01 ± 0.17
14 | KEYCRTLFAYEGTNEDELTFKEGEIIHLISKETGEAGWWRTELNGKEGVFPDNFAVQINEL | -0.636 ± 0.1
15 | KEYCRTLFAYEGTNEDELTFKEGEIIHLISKETGEAGWWRDELNGKEGVFPDNFAVQINEL | -0.616 ± 0.18
16 | KEYCRTLFAYEGTNEDELTFKEGEIIHLISKETGEAGWWRQELNGKEGVFPDNFAVQINEL | -0.657 ± 0.12
17 | KEYCRTLFAYEGTNEDELTFKEGEIIHLISKETGEAGWWRYELNGKEGVFPDNFAVQINEL | -0.938 ± 0.23
18 | KEYCRTLFAYEGTNEDELTFKEGEIIHLISKETGEAGWWRWELNGKEGVFPDNFAVQINEL | -1.14 ± 0.29
19 | KEYCRTLFAYEGTNEDELTFKEGEIIHLISKETGEAGWWRAELNGKEGVFPDNFAVQINEL | -0.703 ± 0.12
20 | KEYCRTLFAYEGTNEDELTFKEGEIIHLISKETGEAGWWRRELNGKEGVFPDNFAVQINEL | -0.909 ± 0.11
21 | KEYCRTLFAYEGTNEDELTFKEGEIIHLISKETGEAGWWRLELNGKEGVFPDNFAVQINEL | -0.747 ± 0.07
22 | KEYCRTLFAYEGTNEDELTFKEGEIIHLISKETGEAGWWNGELNGKEGVFPDNFAVQINEL | -0.706 ± 0.17

Row | Variant | abundance fitness
23 | KEYCRTLFAYEGTNEDELTFKEGEIIHLISKETGEAGWWIGELNGKEGVFPDNFAVQINEL | -0.547 ± 0.11
24 | KEYCRTLFAYEGTNEDELTFKEGEIIHLISKETGEAGWWEGELNGKEGVFPDNFAVQINEL | -0.604 ± 0.09
25 | KEYCRTLFAYEGTNEDELTFKEGEIIHLISKETGEAGWWCGELNGKEGVFPDNFAVQINEL | -0.332 ± 0.07
26 | KEYCRTLFAYEGTNEDELTFKEGEIIHLISKETGEAGWWDGELNGKEGVFPDNFAVQINEL | -0.546 ± 0.099
27 | KEYCRTLFAYEGTNEDELTFKEGEIIHLISKETGEAGWWYGELNGKEGVFPDNFAVQINEL | -0.195 ± 0.12
28 | KEYCRTLFAYEGTNEDELTFKEGEIIHLISKETGEAGWWVGELNGKEGVFPDNFAVQINEL | -0.513 ± 0.069
29 | KEYCRTLFAYEGTNEDELTFKEGEIIHLISKETGEAGWWFGELNGKEGVFPDNFAVQINEL | -0.16 ± 0.091
30 | KEYCRTLFAYEGTNEDELTFKEGEIIHLISKETGEAGWWQGELNGKEGVFPDNFAVQINEL | -0.3 ± 0.071
31 | KEYCRTLFAYEGTNEDELTFKEGEIIHLISKETGEAGWWKGELNGKEGVFPDNFAVQINEL | 0.014 ± 0.066
32 | KEYCRTLFAYEGTNEDELTFKEGEIIHLISKETGEAGWWHGELNGKEGVFPDNFAVQINEL | -0.296 ± 0.09
33 | KEYCRTLFAYEGTNEDELTFKEGEIIHLISKETGEAGWWWGELNGKEGVFPDNFAVQINEL | -0.377 ± 0.067
34 | KEYCRTLFAYEGTNEDELTFKEGEIIHLISKETGEAGWWLGELNGKEGVFPDNFAVQINEL | -0.009 ± 0.05
35 | KEYCRTLFAYEGTNEDELTFKEGEIIHLISKETGEAGWWSGELNGKEGVFPDNFAVQINEL | -0.609 ± 0.066
36 | KEYCRTLFAYEGTNEDELTFKEGEIIHLISKETGEAGWWAGELNGKEGVFPDNFAVQINEL | -0.426 ± 0.065
37 | KEYCRTLFAYEGTNEDELTFKEGEIIHLISKETGEAGWPRGELNGKEGVFPDNFAVQINEL | -0.724 ± 0.2
38 | KEYCRTLFAYEGTNEDELTFKEGEIIHLISKETGEAGWDRGELNGKEGVFPDNFAVQINEL | -0.941 ± 0.47
39 | KEYCRTLFAYEGTNEDELTFKEGEIIHLISKETGEAGWNRGELNGKEGVFPDNFAVQINEL | -0.734 ± 0.14
40 | KEYCRTLFAYEGTNEDELTFKEGEIIHLISKETGEAGWGRGELNGKEGVFPDNFAVQINEL | -0.615 ± 0.082
41 | KEYCRTLFAYEGTNEDELTFKEGEIIHLISKETGEAGWIRGELNGKEGVFPDNFAVQINEL | -0.851 ± 0.17
42 | KEYCRTLFAYEGTNEDELTFKEGEIIHLISKETGEAGWTRGELNGKEGVFPDNFAVQINEL | -0.696 ± 0.1
43 | KEYCRTLFAYEGTNEDELTFKEGEIIHLISKETGEAGWYRGELNGKEGVFPDNFAVQINEL | -0.579 ± 0.11
44 | KEYCRTLFAYEGTNEDELTFKEGEIIHLISKETGEAGWQRGELNGKEGVFPDNFAVQINEL | -0.661 ± 0.2

Row | Variant | abundance fitness
45 | KEYCRTLFAYEGTNEDELTFKEGEIIHLISKETGEAGWKRGELNGKEGVFPDNFAVQINEL | -0.536 ± 0.13
46 | KEYCRTLFAYEGTNEDELTFKEGEIIHLISKETGEAGWMRGELNGKEGVFPDNFAVQINEL | -0.278 ± 0.1
47 | KEYCRTLFAYEGTNEDELTFKEGEIIHLISKETGEAGWERGELNGKEGVFPDNFAVQINEL | -0.663 ± 0.12
48 | KEYCRTLFAYEGTNEDELTFKEGEIIHLISKETGEAGWCRGELNGKEGVFPDNFAVQINEL | -0.48 ± 0.12
49 | KEYCRTLFAYEGTNEDELTFKEGEIIHLISKETGEAGWLRGELNGKEGVFPDNFAVQINEL | -0.532 ± 0.11
50 | KEYCRTLFAYEGTNEDELTFKEGEIIHLISKETGEAGWRRGELNGKEGVFPDNFAVQINEL | -0.547 ± 0.06
51 | KEYCRTLFAYEGTNEDELTFKEGEIIHLISKETGEAGWHRGELNGKEGVFPDNFAVQINEL | -0.623 ± 0.14
52 | KEYCRTLFAYEGTNEDELTFKEGEIIHLISKETGEAGWVRGELNGKEGVFPDNFAVQINEL | -0.519 ± 0.087
53 | KEYCRTLFAYEGTNEDELTFKEGEIIHLISKETGEAGWFRGELNGKEGVFPDNFAVQINEL | -0.513 ± 0.09
54 | KEYCRTLFAYEGTNEDELTFKEGEIIHLISKETGEAGWARGELNGKEGVFPDNFAVQINEL | -0.328 ± 0.098
55 | KEYCRTLFAYEGTNEDELTFKEGEIIHLISKETGEAGDWRGELNGKEGVFPDNFAVQINEL | -0.825 ± 0.18
56 | KEYCRTLFAYEGTNEDELTFKEGEIIHLISKETGEAGGWRGELNGKEGVFPDNFAVQINEL | -0.559 ± 0.13
57 | KEYCRTLFAYEGTNEDELTFKEGEIIHLISKETGEAGNWRGELNGKEGVFPDNFAVQINEL | -0.787 ± 0.13
58 | KEYCRTLFAYEGTNEDELTFKEGEIIHLISKETGEAGQWRGELNGKEGVFPDNFAVQINEL | -0.3 ± 0.1
59 | KEYCRTLFAYEGTNEDELTFKEGEIIHLISKETGEAGMWRGELNGKEGVFPDNFAVQINEL | -0.17 ± 0.11
60 | KEYCRTLFAYEGTNEDELTFKEGEIIHLISKETGEAGRWRGELNGKEGVFPDNFAVQINEL | -0.216 ± 0.062
61 | KEYCRTLFAYEGTNEDELTFKEGEIIHLISKETGEAGIWRGELNGKEGVFPDNFAVQINEL | -0.361 ± 0.075
62 | KEYCRTLFAYEGTNEDELTFKEGEIIHLISKETGEAGPWRGELNGKEGVFPDNFAVQINEL | -0.729 ± 0.1
63 | KEYCRTLFAYEGTNEDELTFKEGEIIHLISKETGEAGCWRGELNGKEGVFPDNFAVQINEL | -0.345 ± 0.072
64 | KEYCRTLFAYEGTNEDELTFKEGEIIHLISKETGEAGFWRGELNGKEGVFPDNFAVQINEL | -0.145 ± 0.12
65 | KEYCRTLFAYEGTNEDELTFKEGEIIHLISKETGEAGVWRGELNGKEGVFPDNFAVQINEL | -0.249 ± 0.069
66 | KEYCRTLFAYEGTNEDELTFKEGEIIHLISKETGEAGTWRGELNGKEGVFPDNFAVQINEL | -0.404 ± 0.075

Row | Variant | abundance fitness
67 | KEYCRTLFAYEGTNEDELTFKEGEIIHLISKETGEAGYWRGELNGKEGVFPDNFAVQINEL | -0.043 ± 0.079
68 | KEYCRTLFAYEGTNEDELTFKEGEIIHLISKETGEAGSWRGELNGKEGVFPDNFAVQINEL | -0.675 ± 0.075
69 | KEYCRTLFAYEGTNEDELTFKEGEIIHLISKETGEAGKWRGELNGKEGVFPDNFAVQINEL | -0.034 ± 0.077
70 | KEYCRTLFAYEGTNEDELTFKEGEIIHLISKETGEAGAWRGELNGKEGVFPDNFAVQINEL | -0.502 ± 0.076
71 | KEYCRTLFAYEGTNEDELTFKEGEIIHLISKETGEAGHWRGELNGKEGVFPDNFAVQINEL | -0.349 ± 0.12
72 | KEYCRTLFAYEGTNEDELTFKEGEIIHLISKETGEAGEWRGELNGKEGVFPDNFAVQINEL | -0.781 ± 0.19
73 | KEYCRTLFAYEGTNEDELTFKEGEIIHLISKETGEAGWWRGTLNGKEGVFPDNFAVQINEL | -0.185 ± 0.12
74 | KEYCRTLFAYEGTNEDELTFKEGEIIHLISKETGEAGWWRGCLNGKEGVFPDNFAVQINEL | -0.201 ± 0.1
75 | KEYCRTLFAYEGTNEDELTFKEGEIIHLISKETGEAGWWRGRLNGKEGVFPDNFAVQINEL | -0.099 ± 0.066
76 | KEYCRTLFAYEGTNEDELTFKEGEIIHLISKETGEAGWWRGLLNGKEGVFPDNFAVQINEL | -0.218 ± 0.082
77 | KEYCRTLFAYEGTNEDELTFKEGEIIHLISKETGEAGWWRGKLNGKEGVFPDNFAVQINEL | -0.011 ± 0.14
78 | KEYCRTLFAYEGTNEDELTFKEGEIIHLISKETGEAGWWRGPLNGKEGVFPDNFAVQINEL | -0.981 ± 0.21
79 | KEYCRTLFAYEGTNEDELTFKEGEIIHLISKETGEAGWWRGNLNGKEGVFPDNFAVQINEL | -0.078 ± 0.24
80 | KEYCRTLFAYEGTNEDELTFKEGEIIHLISKETGEAGWWRGHLNGKEGVFPDNFAVQINEL | -0.419 ± 0.13
81 | KEYCRTLFAYEGTNEDELTFKEGEIIHLISKETGEAGWWRGMLNGKEGVFPDNFAVQINEL | -0.02 ± 0.1
82 | KEYCRTLFAYEGTNEDELTFKEGEIIHLISKETGEAGWWRGFLNGKEGVFPDNFAVQINEL | -0.569 ± 0.2
83 | KEYCRTLFAYEGTNEDELTFKEGEIIHLISKETGEAGWWRGILNGKEGVFPDNFAVQINEL | -0.026 ± 0.1
84 | KEYCRTLFAYEGTNEDELTFKEGEIIHLISKETGEAGWWRGQLNGKEGVFPDNFAVQINEL | -0.12 ± 0.11
85 | KEYCRTLFAYEGTNEDELTFKEGEIIHLISKETGEAGWWRGDLNGKEGVFPDNFAVQINEL | -0.298 ± 0.13
86 | KEYCRTLFAYEGTNEDELTFKEGEIIHLISKETGEAGWWRGSLNGKEGVFPDNFAVQINEL | -0.05 ± 0.073
87 | KEYCRTLFAYEGTNEDELTFKEGEIIHLISKETGEAGWWRGALNGKEGVFPDNFAVQINEL | 0.006 ± 0.1
